From IntAct's records for PubMed 22057290 come the findings set out here.

First the molecules themselves.
B1: Ubiquitin carboxyl-terminal hydrolase CYLD (Homo sapiens), Q9NQC7 (parent)
chain: MSSGLWSQEKVTSPYWEERIFYLLLQECSVTDKQTQKLLKVPKGSIGQYIQDRSVGHSRIPSAKGKKNQIGLKILEQPHAVLFVDEKDVVEINEKFTELLLAITNCEERFSLFKNRNRLSKGLQIDVGCPVKVQLRSGEEKFPGVVRFRGPLLAERTVSGIFFGVELLEEGRGQGFTDGVYQGKQLFQCDEDCGVFVALDKLELIEDDDTALESDYAGPGDTMQVELPPLEINSRVSLKVGETIESGTVIFCDVLPGKESLGYFVGVDMDNPIGNWDGRFDGVQLCSFACVESTILLHINDIIPALSESVTQERRPPKLAFMSRGVGDKGSSSHNKPKATGSTSDPGNRNRSELFYTLNGSSVDSQPQSKSKNTWYIDEVAEDPAKSLTEISTDFDRSSPPLQPPPVNSLTTENRFHSLPFSLTKMPNTNGSIGHSPLSLSAQSVMEELNTAPVQESPPLAMPPGNSHGLEVGSLAEVKENPPFYGVIRWIGQPPGLNEVLAGLELEDECAGCTDGTFRGTRYFTCALKKALFVKLKSCRPDSRFASLQPVSNQIERCNSLAFGGYLSEVVEENTPPKMEKEGLEIMIGKKKGIQGHYNSCYLDSTLFCLFAFSSVLDTVLLRPKEKNDVEYYSETQELLRTEIVNPLRIYGYVCATKIMKLRKILEKVEAASGFTSEEKDPEEFLNILFHHILRVEPLLKIRSAGQKVQDCYFYQIFMEKNEKVGVPTIQQLLEWSFINSNLKFAEAPSCLIIQMPRFGKDFKLFKKIFPSLELNITDLLEDTPRQCRICGGLAMYECRECYDDPDISAGKIKQFCKTCNTQVHLHPKRLNHKYNPVSLPKDLPDWDWRHGCIPCQNMELFAVLCIETSHYVAFVKYGKDDSAWLFFDSMADRDGGQNGFNIPQVTPCPEVGEYLKMSLEDLHSLDSRRIQGCARRLLCDAYMCMYQSPTMSLYK

In the assay the parent is B1. To be noted: with itch_human ITCH.
Y485A: the “effect of a mutation on the interaction” value was “disrupting interaction”.
